According to patent US20140178364A1:

Molecular target: interleukin 3 receptor α (IL-3Rα) chain (human) (UniProt P26951)
Test: cell-based or functional assay

Chain of UniProt P26951 (P26951 20-378): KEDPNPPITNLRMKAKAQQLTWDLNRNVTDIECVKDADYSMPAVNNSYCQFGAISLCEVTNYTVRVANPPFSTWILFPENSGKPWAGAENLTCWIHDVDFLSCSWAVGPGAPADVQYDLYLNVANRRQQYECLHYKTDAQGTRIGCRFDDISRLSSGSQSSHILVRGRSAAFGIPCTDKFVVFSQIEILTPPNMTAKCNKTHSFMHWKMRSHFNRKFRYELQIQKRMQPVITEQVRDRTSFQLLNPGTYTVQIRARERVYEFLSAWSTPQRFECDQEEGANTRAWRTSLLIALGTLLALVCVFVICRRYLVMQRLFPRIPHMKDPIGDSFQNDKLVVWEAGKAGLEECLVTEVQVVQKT

Q: Which pDCs (% of total cells remaining in culture), 4 h, 10 µg/ml antibody on human PBMC (% of total cells) does the source give for “chimeric version of 7G3 with a human IgG1 constant domain (ch7G3) (antibody)” here?
A: The pDCs (% of total cells remaining in culture), 4 h, 10 µg/ml antibody on human PBMC (% of total cells) was 0.1.

Q: And the pDCs (% of total cells remaining in culture), 24 h, 10 µg/ml antibody on human PBMC (% of total cells)?
A: Its pDCs (% of total cells remaining in culture), 24 h, 10 µg/ml antibody on human PBMC (% of total cells) is 0.02.

Q: And the pDCs (% of total cells remaining in culture), 48 h, 10 µg/ml antibody on human PBMC (% of total cells)?
A: The pDCs (% of total cells remaining in culture), 48 h, 10 µg/ml antibody on human PBMC (% of total cells) was 0.005.
